How the values were obtained:
NOD1 = biological target: T1, NOD1 (UniProt Q9Y239 1-953); experiment: co-IP with anti-GFP, GFP-IRGM and Flag-NOD1
T1 construct: also called Flag-NOD1
T1 sequence (looked up): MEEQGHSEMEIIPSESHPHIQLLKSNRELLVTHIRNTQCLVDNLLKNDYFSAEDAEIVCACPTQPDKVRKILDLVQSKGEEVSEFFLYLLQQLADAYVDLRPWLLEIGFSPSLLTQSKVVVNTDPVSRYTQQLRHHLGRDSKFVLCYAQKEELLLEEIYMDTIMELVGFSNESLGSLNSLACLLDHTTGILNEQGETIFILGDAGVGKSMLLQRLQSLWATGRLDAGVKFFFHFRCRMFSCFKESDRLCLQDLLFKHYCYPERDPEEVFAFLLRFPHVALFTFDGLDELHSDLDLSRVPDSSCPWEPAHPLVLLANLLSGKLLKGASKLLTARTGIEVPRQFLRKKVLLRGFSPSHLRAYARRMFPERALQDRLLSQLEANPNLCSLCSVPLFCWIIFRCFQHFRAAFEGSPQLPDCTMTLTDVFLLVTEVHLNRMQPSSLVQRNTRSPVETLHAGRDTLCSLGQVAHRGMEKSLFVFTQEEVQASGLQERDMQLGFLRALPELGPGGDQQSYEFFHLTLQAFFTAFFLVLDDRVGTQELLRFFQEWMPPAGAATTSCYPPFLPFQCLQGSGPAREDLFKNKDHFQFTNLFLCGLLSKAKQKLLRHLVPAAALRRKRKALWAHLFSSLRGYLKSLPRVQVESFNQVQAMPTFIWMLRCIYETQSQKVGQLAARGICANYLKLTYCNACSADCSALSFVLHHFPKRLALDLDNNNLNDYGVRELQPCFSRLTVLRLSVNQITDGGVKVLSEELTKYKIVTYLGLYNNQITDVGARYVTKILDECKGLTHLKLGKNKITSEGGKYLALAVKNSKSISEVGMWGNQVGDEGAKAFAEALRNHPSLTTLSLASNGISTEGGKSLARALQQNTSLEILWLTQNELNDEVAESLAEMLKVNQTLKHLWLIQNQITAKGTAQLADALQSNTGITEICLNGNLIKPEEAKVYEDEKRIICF

RIG-I = biological target: T2, RIG-I (UniProt O95786 1-925); experiment: co-IP with anti-GFP, GFP-IRGM and Flag-Rig-I
T2 construct: also called Flag-Rig-I
T2 sequence (looked up): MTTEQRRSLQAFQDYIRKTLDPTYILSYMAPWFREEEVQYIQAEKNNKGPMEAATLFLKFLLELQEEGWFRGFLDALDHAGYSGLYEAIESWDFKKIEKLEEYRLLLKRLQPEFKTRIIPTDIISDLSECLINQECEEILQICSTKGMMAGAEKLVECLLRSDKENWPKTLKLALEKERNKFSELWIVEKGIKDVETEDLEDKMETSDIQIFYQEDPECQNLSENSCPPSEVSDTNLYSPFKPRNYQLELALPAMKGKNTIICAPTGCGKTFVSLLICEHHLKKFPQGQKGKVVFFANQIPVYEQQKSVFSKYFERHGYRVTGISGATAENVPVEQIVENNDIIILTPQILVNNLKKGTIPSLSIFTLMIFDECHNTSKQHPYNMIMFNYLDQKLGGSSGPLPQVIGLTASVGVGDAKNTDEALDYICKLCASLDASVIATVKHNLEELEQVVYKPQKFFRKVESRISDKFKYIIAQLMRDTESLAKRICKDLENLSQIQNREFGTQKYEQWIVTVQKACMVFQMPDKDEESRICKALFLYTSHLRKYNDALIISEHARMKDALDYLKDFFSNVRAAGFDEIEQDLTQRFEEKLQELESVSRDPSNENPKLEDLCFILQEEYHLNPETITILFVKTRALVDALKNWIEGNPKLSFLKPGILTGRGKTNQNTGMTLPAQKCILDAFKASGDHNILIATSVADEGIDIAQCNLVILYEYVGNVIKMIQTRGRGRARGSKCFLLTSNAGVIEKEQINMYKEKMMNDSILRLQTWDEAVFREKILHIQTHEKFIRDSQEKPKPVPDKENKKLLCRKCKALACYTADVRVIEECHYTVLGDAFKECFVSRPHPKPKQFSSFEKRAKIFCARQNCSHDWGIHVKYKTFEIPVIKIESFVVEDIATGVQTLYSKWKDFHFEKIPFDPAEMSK

binding result (NOD1): binds
binding result (RIG-I): binds
B1: IRGM (human IRGM, isoform d) (other, UniProt A1A4Y4-4 1-202, looked up)
chain: MEAMNVEKASADGNLPEVISNIKETLKIVSRTPVNITMAGDSGNGMSTFISALRNTGHEGKASPPTELVKATQRCASYFSSHFSNVVLWDLPGTGSATTTLENYLMEMQFNRYDFIMVASAQFSMNHVMLAKTAEDMGKKFYIVWTKLDMDLSTGALPEVQLLQIRENVLENLQKERLACHEKYLKSTPENSTRPRNINLCS
notes: Stood in cell lysates as GFP-, Flag- or V5-tagged protein or as the endogenous protein, depending on the experiment; Isoform d is said to be used in all experiments; also called GFP-IRGM; GFP-IRGMd

— patent publication US20180236024A1 (STC UNM, published 2018)
